Measurements from US20200255478A1 (ALMIRALL S A, published 2020).
Positions of bridges follow the written chain, without caps; N, C: chain ends. Non-standard residues stand in square brackets, D forms with d. Primed or numbered codes have the meaning given here. *: point of attachment. (pyridine)3,5‑diyldimethylene = -CH2-(pyridine-3,5-diyl)-CH2- bridge between the two Cys sulfurs; (3,3-oxetanediyl)dimethylene = -CH2-(oxetane-3,3-diyl)-CH2- bridge between the two Cys sulfurs; (1,2-phenylenediyl)dimethylene = -CH2-(1,2-phenylene)-CH2- bridge between the two Cys sulfurs; Pro(4S-NH2) = N[C@@H]1CN[C@H](C(=O)O)C1; Stearoyl = CCCCCCCCCCCCCCCCCC(=O)*; Palmitoyl = CCCCCCCCCCCCCCCC(=O)*; Nonadecanoyl′ = not defined here; Myristoyl = CCCCCCCCCCCCCC(=O)*; Thz = O=C(O)[C@@H]1CSCN1; Dodecyl = CCCCCCCCCCCC*; βAla = NCCC(=O)O

Target: T1, Keap1-Maltose Binding Protein (MBP tag) (UniProt Q14145 321-609, limits assumed)
T1 construct: also called Keap1-MBP; Keap-MBP
Experiment: TR-FRET competition vs ETGE-biotin; grade band per paragraph 615

T1 sequence (Q14145 321-609 limits assumed): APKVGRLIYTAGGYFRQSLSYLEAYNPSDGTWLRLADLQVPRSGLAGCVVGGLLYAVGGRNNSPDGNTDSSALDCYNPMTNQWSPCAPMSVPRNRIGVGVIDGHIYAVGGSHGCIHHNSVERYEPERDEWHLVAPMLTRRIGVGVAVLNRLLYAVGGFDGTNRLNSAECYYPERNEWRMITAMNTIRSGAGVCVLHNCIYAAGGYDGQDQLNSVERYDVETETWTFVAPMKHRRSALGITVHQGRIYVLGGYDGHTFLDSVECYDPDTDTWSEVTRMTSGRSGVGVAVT

Row | Binder | IC50 [nM]
1 | cyclo([Pro(4S-NH2)](Stearoyl)QCD[Thz]ETGECL[dP]) (linker 3-10 via (1,3-phenylenediyl)dimethylene) | < 1
2 | cyclo([Pro(4S-NH2)](Stearoyl)QCDPETGECL[dP]) (linker 3-10 via (1,3-phenylenediyl)dimethylene) | < 1
3 | Stearoyl-[βAla]LQCDPETGECLP-NH2 (linker 4-11 via (pyridine)3,5‑diyldimethylene) | < 1
4 | cyclo([Pro(4S-NH2)](Palmitoyl)QCDPETGECL[dP]) (linker 3-10 via (1,2-phenylenediyl)dimethylene) | < 1
5 | cyclo([Pro(4S-NH2)](Ac)QCDPETGECL[dP]) (linker 3-10 via (1,2-phenylenediyl)dimethylene) | < 1
6 | cyclo([Pro(4S-NH2)](Stearoyl)QCD[Thz]ETGECL[dP]) (linker 3-10 via (3,3-oxetanediyl)dimethylene) | < 1
7 | cyclo([Pro(4S-NH2)](Arachidyl)QCD[Thz]ETGECL[dP]) (linker 3-10 via (3,3-oxetanediyl)dimethylene) | < 1
8 | cyclo([Pro(4S-NH2)](Myristoyl)QCDPETGECL[dP]) (linker 3-10 via (1,2-phenylenediyl)dimethylene) | < 1
9 | cyclo([Pro(4S-NH2)](Dodecyl)QCDPETGECL[dP]) (linker 3-10 via (1,2-phenylenediyl)dimethylene) | < 1
10 | cyclo([Pro(4S-NH2)](Arachidyl)QCDPETGECL[dP]) (linker 3-10 via (3,3-oxetanediyl)dimethylene) | < 1
11 | cyclo([Pro(4S-NH2)](Arachidyl)QCD[Thz]ETGECL[dP]) (linker 3-10 via (1,2-phenylenediyl)dimethylene) | < 1
12 | cyclo(LQCDEETGECLP) (linker 3-10 via (1,3-phenylenediyl)dimethylene) [{[&1Leu-Gln-Cys(&2)-Asp-Glu-Glu-Thr-Gly-Glu-Cys(&3)-Leu-Pro&1][&2(1,3-phenylenediyl)dimethylene&3]}] | < 1
13 | cyclo([Pro(4S-NH2)](behenyl)QCDPETGECL[dP]) (linker 3-10 via (1,2-phenylenediyl)dimethylene) | < 1
14 | cyclo([Pro(4S-NH2)](oleyl)QCDPETGECL[dP]) (linker 3-10 via (1,2-phenylenediyl)dimethylene) | < 1
15 | cyclo([Pro(4S-NH2)](α‑linolenyl)QCDPETGECL[dP]) (linker 3-10 via (1,2-phenylenediyl)dimethylene) | < 1
16 | Stearoyl-[βAla]KQCDPETGECLP-NH2 (linker 4-11 via (1,2-phenylenediyl)dimethylene) | < 1
17 | Stearoyl-[βAla]KKCDPETGECLP-NH2 (linker 4-11 via (1,2-phenylenediyl)dimethylene) | < 1
18 | H-LQCDAETGECLP-OH (linker 3-10 via (1,3-phenylenediyl)dimethylene) [{[H-Leu-Gln-Cys(&1)-Asp-Ala-Glu-Thr-Gly-Glu-Cys(&2)-Leu-Pro-OH][&1(1,3-phenylenediyl)dimethylene&2]}] | < 1
19 | cyclo([Pro(4S-NH2)](Stearoyl)QCD[Thz]ETGECL[dP]) (linker 3-10 via (1,2-phenylenediyl)dimethylene) | < 1
20 | cyclo([Pro(4S-NH2)](arachidyl)QCDPETGECL[dP]) (linker 3-10 via (1,2-phenylenediyl)dimethylene) | < 1
21 | cyclo([Pro(4S-NH2)](Nonadecanoyl′)QCDPETGECL[dP]) (linker 3-10 via (1,2-phenylenediyl)dimethylene) | < 1
22 | cyclo([Pro(4S-NH2)](Stearoyl)QCDPETGECL[dP]) (linker 3-10 via (1,2-phenylenediyl)dimethylene) | < 1
23 | Stearoyl-KQCDPETGECL[dP] (lactam 1-C; linker 3-10 via (1,2-phenylenediyl)dimethylene) | < 1
24 | cyclo([Pro(4S-NH2)](Stearoyl)QCDRETGECL[dP]) (linker 3-10 via (1,2-phenylenediyl)dimethylene) | < 1
25 | cyclo(K(Stearoyl)QCDPETGECL[dP]) (linker 3-10 via (1,2-phenylenediyl)dimethylene) | < 1
26 | Stearoyl-[βAla]LLCDPETGECLL-NH2 (linker 4-11 via (3,3-oxetanediyl)dimethylene) | < 1
